± gives the uncertainty stated by the source.
Assay: abundance fitness (aPCA) (normalised: wild type 0, dead -1); higher = more abundant; growth selection in yeast, the domain comes from the species named
Conditions: Homo sapiens

**Q.** With “DnaJ homolog subfamily B member 1 D65E, P25685” as the substance, how does the abundance fitness read?
**A.** Its abundance fitness is -0.152 ± 0.2.

**Q.** Which abundance fitness does the source give for “DnaJ homolog subfamily B member 1 D65F, P25685” here?
**A.** Its abundance fitness is -0.275 ± 0.18.

**Q.** For “DnaJ homolog subfamily B member 1 D65G, P25685”, which abundance fitness is on record?
**A.** The abundance fitness was -0.197 ± 0.11.

**Q.** Which abundance fitness does the source give for “DnaJ homolog subfamily B member 1 D65I, P25685” here?
**A.** The abundance fitness was -0.387 ± 0.1.

**Q.** With “DnaJ homolog subfamily B member 1 D65L, P25685” as the substance, how does the abundance fitness read?
**A.** The abundance fitness was -0.116 ± 0.085.

**Q.** Which abundance fitness does the source give for “DnaJ homolog subfamily B member 1 D65M, P25685” here?
**A.** The abundance fitness was -0.162 ± 0.13.

**Q.** For “DnaJ homolog subfamily B member 1 D65N, P25685”, which abundance fitness is on record?
**A.** The abundance fitness was -0.222 ± 0.19.

**Q.** Which abundance fitness does the source give for “DnaJ homolog subfamily B member 1 D65P, P25685” here?
**A.** Its abundance fitness is -0.164 ± 0.11.

**Q.** For “DnaJ homolog subfamily B member 1 D65Q, P25685”, which abundance fitness is on record?
**A.** The abundance fitness was -0.124 ± 0.11.

**Q.** Which abundance fitness does the source give for “DnaJ homolog subfamily B member 1 D65R, P25685” here?
**A.** The abundance fitness was -0.163 ± 0.1.

**Q.** With “DnaJ homolog subfamily B member 1 D65S, P25685” as the substance, how does the abundance fitness read?
**A.** Its abundance fitness is -0.158 ± 0.18.

**Q.** With “DnaJ homolog subfamily B member 1 D65T, P25685” as the substance, how does the abundance fitness read?
**A.** Its abundance fitness is -0.228 ± 0.11.

**Q.** For “DnaJ homolog subfamily B member 1 D65V, P25685”, which abundance fitness is on record?
**A.** Its abundance fitness is -0.262 ± 0.1.

**Q.** Which abundance fitness does the source give for “DnaJ homolog subfamily B member 1 D65W, P25685” here?
**A.** Its abundance fitness is -0.358 ± 0.19.

**Q.** For “DnaJ homolog subfamily B member 1 D65Y, P25685”, which abundance fitness is on record?
**A.** The abundance fitness was -0.261 ± 0.13.

**Q.** For “DnaJ homolog subfamily B member 1 E18A, P25685”, which abundance fitness is on record?
**A.** Its abundance fitness is -0.067 ± 0.074.

**Q.** Which abundance fitness does the source give for “DnaJ homolog subfamily B member 1 E18D, P25685” here?
**A.** The abundance fitness was 0.034 ± 0.16.

**Q.** Which abundance fitness does the source give for “DnaJ homolog subfamily B member 1 E18G, P25685” here?
**A.** The abundance fitness was -0.162 ± 0.066.

**Q.** With “DnaJ homolog subfamily B member 1 E18H, P25685” as the substance, how does the abundance fitness read?
**A.** The abundance fitness was -0.066 ± 0.28.

**Q.** For “DnaJ homolog subfamily B member 1 E18I, P25685”, which abundance fitness is on record?
**A.** Its abundance fitness is -0.173 ± 0.14.

**Q.** For “DnaJ homolog subfamily B member 1 E18K, P25685”, which abundance fitness is on record?
**A.** The abundance fitness was -0.205 ± 0.11.

**Q.** Which abundance fitness does the source give for “DnaJ homolog subfamily B member 1 E18L, P25685” here?
**A.** The abundance fitness was -0.21 ± 0.071.

**Q.** For “DnaJ homolog subfamily B member 1 E18M, P25685”, which abundance fitness is on record?
**A.** Its abundance fitness is -0.188 ± 0.074.

**Q.** With “DnaJ homolog subfamily B member 1 E18N, P25685” as the substance, how does the abundance fitness read?
**A.** The abundance fitness was -0.045 ± 0.18.

**Q.** With “DnaJ homolog subfamily B member 1 E18Q, P25685” as the substance, how does the abundance fitness read?
**A.** Its abundance fitness is -0.231 ± 0.083.

**Q.** With “DnaJ homolog subfamily B member 1 E18S, P25685” as the substance, how does the abundance fitness read?
**A.** Its abundance fitness is -0.093 ± 0.074.

**Q.** Which abundance fitness does the source give for “DnaJ homolog subfamily B member 1 E18T, P25685” here?
**A.** The abundance fitness was -0.081 ± 0.15.

**Q.** For “DnaJ homolog subfamily B member 1 E18V, P25685”, which abundance fitness is on record?
**A.** Its abundance fitness is -0.209 ± 0.061.

**Q.** With “DnaJ homolog subfamily B member 1 E18W, P25685” as the substance, how does the abundance fitness read?
**A.** Its abundance fitness is -0.268 ± 0.061.

**Q.** With “DnaJ homolog subfamily B member 1 E19A, P25685” as the substance, how does the abundance fitness read?
**A.** Its abundance fitness is 0.022 ± 0.08.

**Q.** For “DnaJ homolog subfamily B member 1 E19C, P25685”, which abundance fitness is on record?
**A.** The abundance fitness was -0.291 ± 0.12.

**Q.** Which abundance fitness does the source give for “DnaJ homolog subfamily B member 1 E19D, P25685” here?
**A.** Its abundance fitness is -0.089 ± 0.092.

**Q.** Which abundance fitness does the source give for “DnaJ homolog subfamily B member 1 E19F, P25685” here?
**A.** The abundance fitness was -1.06 ± 0.08.

**Q.** With “DnaJ homolog subfamily B member 1 E19G, P25685” as the substance, how does the abundance fitness read?
**A.** Its abundance fitness is -0.539 ± 0.078.

**Q.** Which abundance fitness does the source give for “DnaJ homolog subfamily B member 1 E19H, P25685” here?
**A.** The abundance fitness was -0.363 ± 0.14.

**Q.** With “DnaJ homolog subfamily B member 1 E19I, P25685” as the substance, how does the abundance fitness read?
**A.** The abundance fitness was -0.659 ± 0.12.

**Q.** Which abundance fitness does the source give for “DnaJ homolog subfamily B member 1 E19K, P25685” here?
**A.** The abundance fitness was -0.396 ± 0.099.

**Q.** Which abundance fitness does the source give for “DnaJ homolog subfamily B member 1 E19L, P25685” here?
**A.** The abundance fitness was -0.32 ± 0.069.

**Q.** Which abundance fitness does the source give for “DnaJ homolog subfamily B member 1 E19M, P25685” here?
**A.** Its abundance fitness is -0.199 ± 0.1.

**Q.** For “DnaJ homolog subfamily B member 1 E19N, P25685”, which abundance fitness is on record?
**A.** Its abundance fitness is -0.273 ± 0.11.

**Q.** Which abundance fitness does the source give for “DnaJ homolog subfamily B member 1 E19P, P25685” here?
**A.** The abundance fitness was -1.29 ± 0.11.

**Q.** For “DnaJ homolog subfamily B member 1 E19Q, P25685”, which abundance fitness is on record?
**A.** Its abundance fitness is 0.118 ± 0.12.

**Q.** Which abundance fitness does the source give for “DnaJ homolog subfamily B member 1 E19R, P25685” here?
**A.** The abundance fitness was -0.452 ± 0.083.

**Q.** For “DnaJ homolog subfamily B member 1 E19S, P25685”, which abundance fitness is on record?
**A.** The abundance fitness was -0.18 ± 0.069.

**Q.** With “DnaJ homolog subfamily B member 1 E19T, P25685” as the substance, how does the abundance fitness read?
**A.** Its abundance fitness is -0.36 ± 0.073.

**Q.** For “DnaJ homolog subfamily B member 1 E19V, P25685”, which abundance fitness is on record?
**A.** The abundance fitness was -0.491 ± 0.093.

**Q.** Which abundance fitness does the source give for “DnaJ homolog subfamily B member 1 E19W, P25685” here?
**A.** The abundance fitness was -1.25 ± 0.17.

**Q.** Which abundance fitness does the source give for “DnaJ homolog subfamily B member 1 E19Y, P25685” here?
**A.** The abundance fitness was -1.06 ± 0.14.

**Q.** With “DnaJ homolog subfamily B member 1 E38A, P25685” as the substance, how does the abundance fitness read?
**A.** The abundance fitness was -0.29 ± 0.26.

**Q.** With “DnaJ homolog subfamily B member 1 E38C, P25685” as the substance, how does the abundance fitness read?
**A.** Its abundance fitness is -0.027 ± 0.11.

**Q.** Which abundance fitness does the source give for “DnaJ homolog subfamily B member 1 E38D, P25685” here?
**A.** Its abundance fitness is -0.287 ± 0.24.

**Q.** With “DnaJ homolog subfamily B member 1 E38F, P25685” as the substance, how does the abundance fitness read?
**A.** Its abundance fitness is -0.127 ± 0.12.

**Q.** Which abundance fitness does the source give for “DnaJ homolog subfamily B member 1 E38G, P25685” here?
**A.** Its abundance fitness is -0.068 ± 0.098.

**Q.** With “DnaJ homolog subfamily B member 1 E38H, P25685” as the substance, how does the abundance fitness read?
**A.** The abundance fitness was 0.017 ± 0.2.

**Q.** With “DnaJ homolog subfamily B member 1 E38I, P25685” as the substance, how does the abundance fitness read?
**A.** Its abundance fitness is -0.034 ± 0.15.

**Q.** For “DnaJ homolog subfamily B member 1 E38L, P25685”, which abundance fitness is on record?
**A.** The abundance fitness was -0.099 ± 0.061.

**Q.** With “DnaJ homolog subfamily B member 1 E38M, P25685” as the substance, how does the abundance fitness read?
**A.** The abundance fitness was -0.041 ± 0.1.

**Q.** With “DnaJ homolog subfamily B member 1 E38N, P25685” as the substance, how does the abundance fitness read?
**A.** The abundance fitness was -0.179 ± 0.2.

**Q.** For “DnaJ homolog subfamily B member 1 E38P, P25685”, which abundance fitness is on record?
**A.** The abundance fitness was -0.342 ± 0.14.

**Q.** For “DnaJ homolog subfamily B member 1 E38R, P25685”, which abundance fitness is on record?
**A.** Its abundance fitness is -0.172 ± 0.091.

**Q.** With “DnaJ homolog subfamily B member 1 E38S, P25685” as the substance, how does the abundance fitness read?
**A.** The abundance fitness was -0.106 ± 0.083.

**Q.** For “DnaJ homolog subfamily B member 1 E38T, P25685”, which abundance fitness is on record?
**A.** Its abundance fitness is -0.041 ± 0.089.

**Q.** Which abundance fitness does the source give for “DnaJ homolog subfamily B member 1 E38V, P25685” here?
**A.** The abundance fitness was -0.006 ± 0.096.

**Q.** For “DnaJ homolog subfamily B member 1 E38W, P25685”, which abundance fitness is on record?
**A.** Its abundance fitness is -0.019 ± 0.081.

**Q.** For “DnaJ homolog subfamily B member 1 E42A, P25685”, which abundance fitness is on record?
**A.** The abundance fitness was 0.002 ± 0.077.

**Q.** Which abundance fitness does the source give for “DnaJ homolog subfamily B member 1 E42C, P25685” here?
**A.** The abundance fitness was -0.048 ± 0.097.

**Q.** Which abundance fitness does the source give for “DnaJ homolog subfamily B member 1 E42D, P25685” here?
**A.** Its abundance fitness is 0.116 ± 0.11.

**Q.** For “DnaJ homolog subfamily B member 1 E42F, P25685”, which abundance fitness is on record?
**A.** The abundance fitness was -0.171 ± 0.1.

**Q.** Which abundance fitness does the source give for “DnaJ homolog subfamily B member 1 E42G, P25685” here?
**A.** The abundance fitness was -0.153 ± 0.097.

**Q.** With “DnaJ homolog subfamily B member 1 E42H, P25685” as the substance, how does the abundance fitness read?
**A.** The abundance fitness was -0.003 ± 0.098.

**Q.** With “DnaJ homolog subfamily B member 1 E42I, P25685” as the substance, how does the abundance fitness read?
**A.** Its abundance fitness is -0.105 ± 0.12.

**Q.** Which abundance fitness does the source give for “DnaJ homolog subfamily B member 1 E42K, P25685” here?
**A.** Its abundance fitness is 0.301 ± 0.14.

**Q.** With “DnaJ homolog subfamily B member 1 E42L, P25685” as the substance, how does the abundance fitness read?
**A.** Its abundance fitness is 0.086 ± 0.055.

**Q.** For “DnaJ homolog subfamily B member 1 E42M, P25685”, which abundance fitness is on record?
**A.** Its abundance fitness is 0.038 ± 0.079.

— the Human Domainome abundance scans (Beltran et al. 2025)
